Measured values: article PMC7263513

Tests used:
[1] = biological target: SARS-CoV-2 receptor binding domain (RBD) (Severe acute respiratory syndrome coronavirus 2 (2019-nCoV) (SARS-CoV-2).) (UniProt P0DTC2)
[2] = biological target: SARS-CoV-2 receptor binding domain (RBD) (SARS-CoV-2) (UniProt P0DTC2)

## C002 (antibody)
[1]
  IC50 of neutralisation of SARS-CoV-2 pseudovirus (293T (ACE2) cells): 0.00888 mg/L

## C104 (antibody)
[1]
  IC50 of neutralisation of SARS-CoV-2 pseudovirus (293T (ACE2) cells): 0.0233 mg/L

## C105 (antibody)
[1]
  IC50 of neutralisation of SARS-CoV-2 pseudovirus (293T (ACE2) cells): 0.0261 mg/L

## C110 (antibody)
[1]
  IC50 of neutralisation of SARS-CoV-2 pseudovirus (293T (ACE2) cells): 0.0184 mg/L

## C144 (antibody)
[2]
  IC50 of neutralisation of SARS-CoV-2 pseudovirus (293T (ACE2) cells): 0.00691 mg/L
